From US20040151713
Residue numbers refer to the chain shown, from its start. In names and notes the source's numbering stands.

T1: GST-Cdc25B (C terminal peptide: 281-381aa), P30305
T1 chain: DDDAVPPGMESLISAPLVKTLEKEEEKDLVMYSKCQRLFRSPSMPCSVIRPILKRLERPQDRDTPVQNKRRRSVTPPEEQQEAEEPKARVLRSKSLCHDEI

T2: GST-Cdc25C (C terminal peptide: 195-260aa), P30307
T2 chain: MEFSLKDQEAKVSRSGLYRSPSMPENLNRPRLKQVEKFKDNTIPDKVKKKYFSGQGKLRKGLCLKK

B1: hCdr2 wild-type (wt) recombinant protein with c-Myc tag (protein)
chain: MSSGAKEGGGGSPAYHLPHPHPHPPQHAQYVGPYRLEKTLGKGQTGLVKLGVHCITGQKVAIKIVNREKLSESVLMKVEREIAILKLIEHPHVLKLHDVYENKKYLYLVLEHVSGGELFDYLVKKGRLTPKEARKFFRQIVVCAGLCHSYSICHRDLKPENLLLDEKNNIRIADFGMASLQVGDSLLETSCGSPHYACPEVIKGEKYDGRRADMWSCGVILFALLVGALPFDDDNLRQLLEKVKRGVFHMPHFIPPDCQSLLRGMIEVEPEKRLSLEQIQKHPWYLGGKHEPDPCLEPAPGRRVAMRSLPSNGELDPDVLESMASLGCFRDRERLHRELRSEEENQEKMIYYLLLDRKERYPSCEDQDLPPRNDVDPPRKRVDSPMLSRHGKRRPERKSMEVLSITDAGGGGSPVPTRRALEMAQHSQRSRSVSGASTGLSSSPLSSPRSPVFSFSPEPGAGDEARGGGSPTSKTQTLPGPPGSPRSSGGTPLHSPLHTPRASPTGTPGTTPPPSPGGGVGGAAWRSRLNSIRNSFLGSPRFHRRKMQVPTAEEMSSLTPESSPELAKRSWFGNFISLDKEEQIFLVLKDKPLSSIKADIVHAFLSIPSLSHSVLSQTSFRAEYKASGGPSVFQKPVRFQVDISSSEGPEPSPRRDGSGGGGIYSVTFTLISGPSRRFKRVVETIQAQLLSTHDQPSVQALADEKNGAQTRPAGAPPRSLQPPPGRPDPELSSSPRRGPPKDKKLLATNGTPLP
B2: hCdr2 K59A kinase-dead mutated protein with c-Myc tag (protein)
chain: B1 chain with K59A

What was measured:
[1] = biological target: T1, GST-Cdc25B (C terminal peptide: …)
[2] = biological target: GST-Cdc25B S309A [GST: P08515]
[3] = biological target: T2, GST-Cdc25C (C terminal peptide: …)
[4] = biological target: GST-Cdc25C S216A [GST: P08515]
[5] = biological target: GST-fusion recombinant protein containing human Weel (full-length protein), P30291
Sequence of GST-fusion recombinant protein containing human Weel (full-length protein), P30291 (P30291 whole entry, looked up, the tested form may be a part): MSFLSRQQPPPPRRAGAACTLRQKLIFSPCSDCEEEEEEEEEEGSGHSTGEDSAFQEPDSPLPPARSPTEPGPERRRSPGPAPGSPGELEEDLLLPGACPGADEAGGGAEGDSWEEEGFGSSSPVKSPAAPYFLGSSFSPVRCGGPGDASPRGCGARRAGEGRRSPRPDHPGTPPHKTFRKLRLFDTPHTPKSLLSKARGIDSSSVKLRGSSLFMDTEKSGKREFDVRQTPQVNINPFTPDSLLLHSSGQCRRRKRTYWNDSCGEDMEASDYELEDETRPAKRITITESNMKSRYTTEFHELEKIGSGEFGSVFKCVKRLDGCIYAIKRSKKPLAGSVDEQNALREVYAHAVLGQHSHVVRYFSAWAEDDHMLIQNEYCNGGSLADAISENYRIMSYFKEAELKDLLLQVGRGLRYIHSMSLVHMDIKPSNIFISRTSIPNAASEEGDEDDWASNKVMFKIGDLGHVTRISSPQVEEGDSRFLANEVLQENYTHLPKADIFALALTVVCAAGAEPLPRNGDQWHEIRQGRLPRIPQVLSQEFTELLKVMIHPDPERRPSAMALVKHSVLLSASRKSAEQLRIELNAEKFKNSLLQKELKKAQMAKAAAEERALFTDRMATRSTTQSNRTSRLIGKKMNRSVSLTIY

Row | Protein | in vitro kinase assay (32P autoradiography) [1] | in vitro kinase assay (32P autoradiography) [2] | in vitro kinase assay (32P autoradiography) [3] | in vitro kinase assay (32P autoradiography) [4] | in vitro kinase assay (32P autoradiography) [5]
1 | B1 | the hCdr2 wt protein severely phosphorylated the GST-Cdc25B (C terminal peptide: 282-381aa) | When GST-Cdc25B S309A was used as a substrate, even the hCdr2 wt protein did not provide phosphorylation action | the hCdr2 wt protein phosphorylated GST-Cdc25C (C terminal peptide: 195-260aa) | When GST-Cdc25C S216A was used as a substrate, phosphorylation of the hCdr2 wt protein did not occur | the human Weel could not be phosphorylated
2 | B2 | the weak phosphorylating action exhibited by the mock and hCdr2 K59A |  | but failed to phosphorylate the hCdr2 K59A protein |  | 
